For assay [1], the target named is T1, recombinant human CTLA-4 (human, UniProt P16410 36-161, limits assumed).
T1 construct: Plate-coated at 0.5 ug/mL in Embodiment 8
T1 sequence (looked up): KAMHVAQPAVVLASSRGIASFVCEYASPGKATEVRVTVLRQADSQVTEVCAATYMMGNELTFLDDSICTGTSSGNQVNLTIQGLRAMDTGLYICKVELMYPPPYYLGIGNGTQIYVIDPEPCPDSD
Nature of the assay: ELISA: protein coated at 0.5 ug/mL, antibody at 0.5 ug/mL, goat anti-human FAB-HRP, OD450. The method, then:
(§1) The binding of recombinant human CD28, recombinant human CTLA-4, recombinant mouse PD-1, recombinant M.fascicularis PD-1 and recombinant human PD-1 protein in recombinant CD28 family to antibodies is tested. Different proteins are stored at 0.5 μg/mL in enveloping buffer at 4° C. overnight. Remove the solution in wells the next day and wash with PBST for twice. Then add 1% BSA, seal at 37° C. for 1 hour, then wash with PBST for twice. Add 0.5 μg/mL antibody samples, incubate for 1 hour, and wash with PBST for three times. Dilute with goat anti-human FAB-HRP at ratio of 1:10000, incubate for 1 hour at 37 C, and wash with PBST for three times. Add TMB for 15 min coloration, stop the reaction with 0.5M H2SO4 and read out the absorbance at 450 nm.
In general terms: In an ELISA, binding on a coated surface is turned into a signal by an enzyme label.

In assay [2] the target is T2, mouse pd1 (mouse, UniProt Q02242).
T2 construct: recombinant protein coated on the ELISA plate; also called recombinant mouse PD-1
T2 sequence (receptor, looked up): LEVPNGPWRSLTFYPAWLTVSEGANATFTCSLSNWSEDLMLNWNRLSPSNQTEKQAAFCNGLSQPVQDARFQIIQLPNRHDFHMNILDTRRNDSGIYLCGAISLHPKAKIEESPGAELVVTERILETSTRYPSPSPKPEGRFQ
Described as above. The protocol:
as §1

Assay [3] has as its target T3, recombinant human CD28 (human, UniProt P10747 19-152, limits assumed).
T3 construct: Plate-coated at 0.5 ug/mL in Embodiment 8
The description is as above. The method, then: as §1

Assay [4] deals with Recombinant human PD-1 fusion protein (human). Nature of the assay: ELISA: recombinant human PD-1 fusion protein coated at 0.5 ug/mL, antibody kept 0 days in monkey serum at 37 C, goat anti-human FAB-HRP, OD450.
The target of assay [5] is T4, PD-1 antigen of the Biacore experiment (not given) (UniProt Q15116 25-167, limits assumed).
T4 construct: Embodiment 5 describes capture by goat anti-human IgG on the chip but never names the analyte
Nature of the assay: SPR (Biacore), antibody captured by goat anti-human IgG on CM5 chip. From the text: Biacore is used to analyze the affinity and binding kinetics of the antibody expressed in cell line 4. Using standard amine coupling chemistry and the kit provided by Biacore, the goat anti-human IgG is covalently linked to CMS chip by primary amine. Make the antibody flow in the HBS EP buffer at a flow rate of […] and measure the binding. The binding time is 300 seconds, and the dissociation time is 7200 seconds.
A general note: SPR reads the build-up and loss of mass on a sensor chip optically.

In assay [6] the target is T5, PD1-His (human, UniProt Q15116 25-167, limits assumed).
T5 construct: also called hPD-1; not shown: His tag
Nature of the assay: ELISA, PD1-His coated; ELISA, PD1-His on the plate. The protocol: Lay PD1-His on the plate, add gradient diluted antibody, incubate and wash it, and then add goat anti-mouse-HRP, perform coloration, and draw up the reaction curve by fitting of readings (see FIG. 6 for results) to calculate the EC50 value.

The target in assay [7] is T6, PD1 on PD1-27 cells (PD1 over-expressed CHO-K1 stable transfected cells) (UniProt Q15116 25-288).
T6 construct: whole, on cells
Put plainly: direct cell binding on PD1-27 CHO-K1 cells, EU fluorescence (heading 'Cell binding activity'; value printed as 'cell inhibitory activity IC50'); direct cell binding on PD1-27 cells, no competitor. The text has this: (§2) Lay PD1-27 (PD1 over-expressed CHO-K1 stable transfected cells) on the cell plate for culture inspection one day ahead of schedule. After closure on the next day, add gradient-diluted antibody, then anti-mouse-EU after washing, then fluorescence enhancement solution after washing, and obtain the readings.

The target in assay [8] is T7, PD1-Fc-His (UniProt Q15116 25-167, limits assumed).
T7 construct: not shown: Fc; His tag
Nature of the assay: competition ELISA: antibody pre-incubated with PD1-Fc-His, plate coated with 'PD1-Fc' (competitor (so in the source)), anti-His-HRP; humanized-section antibody; ELISA competition, PD1-Fc-His in solution. The method, then: (§3) Incubate the gradient diluted antibody and a certain concentration of PD1-Fc-His in advance, then add the mixture to the plate laid with PD1-Fc. Add anti-His-HRP to the plate after incubating and washing. Then perform coloration. Draw up the reaction curve by fitting of readings (see FIG. 7 for results) to calculate the IC50 value.

Assay [9] addresses Recombinant human PD-1 fusion protein (human). Nature of the assay: ELISA: recombinant human PD-1 fusion protein coated at 0.5 ug/mL, antibody kept 1 day in monkey serum at 37 C, goat anti-human FAB-HRP, OD450.
For assay [10] the target is unchanged. Put plainly: ELISA: recombinant human PD-1 fusion protein coated at 0.5 ug/mL, antibody kept 4 days in monkey serum at 37 C, goat anti-human FAB-HRP, OD450.
Assay [11] shares this target. Put plainly: ELISA: recombinant human PD-1 fusion protein coated at 0.5 ug/mL, antibody kept 7 days in monkey serum at 37 C, goat anti-human FAB-HRP, OD450.
Assay [12] has as its target T7, PD1-Fc-His. Nature of the assay: Inhibition ELISA: graded antibody pre-incubated with PD1-Fc-His, added to a plate laid with 'PD1-Fc' (so in the source), anti-His-HRP, OD450. The method, then: as §3
Assay [13] concerns the target T7, PD1-Fc-His. Nature of the assay: Inhibition ELISA: graded antibody pre-incubated with PD1-Fc-His, added to a plate coated with 'PD1-Fc' (so in the source), anti-His-HRP, OD450. The protocol: (§4) Incubate the gradient diluted antibody and a certain concentration of PD1-Fc-His in advance, then add the mixture to the plate enveloped with PD1-Fc. Add anti-His-HRP to the plate after incubating and washing. Then perform coloration. Draw up the reaction curve by fitting of readings (see FIG. 2 for results) to calculate the IC50 value.

The target of assay [14] is T5, PD1-His. Put plainly: ELISA, PD1-His coated, goat anti-mouse-HRP. The protocol: Envelop PD1-His on the plate, add gradient diluted antibody, incubate and wash it, and then add goat anti-mouse-HRP, perform coloration, and draw up the reaction curve by fitting of readings (see FIG. 1 for results) to calculate the EC50 value.
Assay [15] has as its target T6, PD1 on PD1-27 cells (PD1 over-expressed …). Nature of the assay: cell competition on PD1-27 CHO-K1 cells against 'PD1-Fc' (competitor (so in the source)), anti-Human-EU; mouse antibody; cell competition on PD1-27 CHO-K1 cells. The text has this: Lay PD1-27 (PD1 over-expressed CHO-K1 stable transfected cells) on the cell plate for culture inspection one day ahead of schedule. After closure on the next day, add gradient-diluted antibody and PD1-Fc, then anti-Human-EU after washing, and then fluorescence enhancement solution after washing.

Assay [16] shares this target. Put plainly: cell binding on PD1-27 CHO-K1 cells, anti-mouse-EU fluorescence.
Source text: as §2

The target of assay [17] is T7, PD1-Fc-His. Nature of the assay: competition ELISA: antibody pre-incubated with PD1-Fc-His, plate coated with 'PD1-Fc' (competitor (so in the source)), anti-His-HRP; mouse antibody; ELISA competition, PD1-Fc-His in solution. The protocol: as §4

Chain of Recombinant human PD-1 fusion protein (human) (Q15116 25-170): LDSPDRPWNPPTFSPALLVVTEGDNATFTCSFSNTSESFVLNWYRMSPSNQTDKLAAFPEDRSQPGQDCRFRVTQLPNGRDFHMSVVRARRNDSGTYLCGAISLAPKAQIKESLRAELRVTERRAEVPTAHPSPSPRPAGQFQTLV
T7 sequence (Q15116 25-167 limits assumed): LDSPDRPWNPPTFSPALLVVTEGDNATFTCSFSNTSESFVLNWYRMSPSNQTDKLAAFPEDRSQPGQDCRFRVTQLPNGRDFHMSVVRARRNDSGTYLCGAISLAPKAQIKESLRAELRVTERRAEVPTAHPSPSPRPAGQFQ
T4 sequence (Q15116 25-167 limits assumed): as above
T6 sequence (Q15116 25-288 limits assumed): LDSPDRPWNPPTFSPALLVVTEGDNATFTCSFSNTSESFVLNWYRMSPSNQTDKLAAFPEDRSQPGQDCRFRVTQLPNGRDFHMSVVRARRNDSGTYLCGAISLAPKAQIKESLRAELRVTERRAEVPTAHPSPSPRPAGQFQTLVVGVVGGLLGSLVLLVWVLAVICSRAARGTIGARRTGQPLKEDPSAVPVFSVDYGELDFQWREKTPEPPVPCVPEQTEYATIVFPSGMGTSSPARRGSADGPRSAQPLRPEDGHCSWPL
T5 sequence (Q15116 25-167 limits assumed): as the sequence (Q15116 25-167 limits assumed) above
T3 sequence (P10747 19-152 limits assumed): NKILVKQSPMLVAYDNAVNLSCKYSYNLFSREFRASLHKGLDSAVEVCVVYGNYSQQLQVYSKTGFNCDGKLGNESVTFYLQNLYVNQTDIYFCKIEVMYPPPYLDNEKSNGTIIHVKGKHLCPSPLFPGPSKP

B1: humanized antibody anti-PD-1 (antibody, V domains shown)
VH: EVQLVESGGGLVKPGGSLRLSCAASGFTFSSYTMSWVRQAPGKGLEWVATISNGGSFTYYPDSMKGRFTISRDNSKNTLYLQMSSLRAEDTAVYYCARDSDYYGIFDYWGQGTTVTVSS
VL: DIVMTQSPLSLPVTPGEPASISCRSSKSLLYKDGKTYLNWYLQKPGQSPQLLIYLMSTRASGVPDRFSGSGSGTDFTLKISRVEAEDVGVYYCQQLVEDPFTFGQGTKLEIKR
notes: Human constant regions; also called humanized PD-1 antibody; hup01 (plasmids P3.1GS-hup01-HC / P3.1GS-hup01-LC)
For B1, the binding result in assay [1], in [2] and in assay [3] was “no binding (tested: 0.5 ug/mL)” in each case. Also, the EC50 (read off the curve) in assay [4], in assay [9], in [10] and in [11] was 0.04 µg/mL each time. Further, in assay [5], the Kd – broadly, the constant that tells how readily two partners part at equilibrium – came to 0.422 nM. The koff (commonly the rate constant with which the complex falls apart) in [5] came to 1.93e-05 s⁻¹. Besides, in assay [5], the kon (usually a measure of how fast the partners come together) is 45700 M⁻¹ s⁻¹. Further, the EC50 (commonly the concentration needed to bring the measured effect to its halfway point) in assay [6] was 0.00609 µg/mL; in assay [7], 0.103 µg/mL. Also, the IC50 (in general, the concentration at which inhibition is half-maximal) in [8] amounted to 406 nM. Also, in assay [12], the “IC50 (read off the curve)” value was approximately 0.4 µg/mL.

B2: mouse anti-PD-1 (antibody, V domains shown)
VH: DVKLVESGGGLVKPGGSLKLSCAASGFTFSSYTMSWVRQTPEKRLEWVATISNGGSFTYYPDSMKGRFTISRDNAKNTLYLQMSSLKSEDTAMYYCTRDSDYYGIFDYWGQGTTLTVSS
VL: DIVITQDELSNPVTSGESVSISCRSSKSLLYKDGKTYLNWFLQRPGQSPQLLIYLMSTRASGVSDRFSGSGSGTDFTLEISRVKAEDVGVYYCQQLVEDPFTFGSGTKLEIKR
notes: also called mouse anti-PD-1 monoclonal antibody; mouse PD-1 antibody
For B2, the “IC50 (read off the curve)” value in assay [13] is approximately 0.004 µg/mL. In addition, the EC50 in [14] was 0.0024 µg/mL; in assay [16] it was 0.0878 µg/mL. For the same molecule, the IC50 in assay [15] is 0.284 µg/mL; in assay [17] it was 3.83 nM.

These data come from patent US20190071501A1 (REYOUNG SUZHOU BIOLOGY SCIENCE AND TECHNOLOGY, published 2019).
